Source: US20240115497A1, “INHALABLE PHARMACEUTICAL POWDER FORMULATION AND PREPARATION METHOD THEREFOR” (ZHEJIANG CUIZE PHARMACEUTICAL TECHNOLOGY CO., LTD., priority 2021, published 2024)

How the values were obtained:
[1] = Specific surface area by inverse gas chromatography-surface energy analyzer; assay type: physicochemical
From the text: The specific surface areas of the bulk drug semaglutide, excipient leucine and powder formulation were respectively detected by an inverse gas chromatography-surface energy analyzer.

[2] = injectable and oral formulations; cited from earlier work

Row | Compound | Specific surface area [1] [m^2/g] | bioavailability [2]
1 | CC(C)C[C@H](N)C(=O)O [Excipient leucine, leucine] | 0.506 | –
2 | Semaglutide [Bulk drug semaglutide] | 1.816 | about 1%
